Measurements as given in patent US7981863B2, “Treatment of Parkinson's disease with PDGF” (Neuronova AB, priority 2001, dated 2011).

Key:
MPTP-lesioned mice = assay: MPTP-induced neuronal loss in substantia nigra pars compacta, intraventricular infusion; type: in vivo, mouse; conditions: for Total number of tyrosine hydroxylase neurons in the bilateral substantia nigra pars compacta: PDGF-BB intraventricularly 0.1 μg/h/kg for three days, two months later, Mean ± S.E.M
Method: Ten-week old male C57B1/6 mice (25 g, B&K Universal, Stockholm, Sweden).
PDGF-BB (Sigma) was administered directly into the right lateral ventricle of the brain using osmotic pumps (Alza 1003D, delivery of 1.0 μl/h for three days) and brain infusion kits. The drug solution was prepared as follows: 10 μg PDGF-BB was dissolved in 10 μl 1M HAc, after which pH was adjusted to 7.4 by adding 10 μl NaOH. A buffer was added (100 ml 0.01M PBS containing 5 mg/ml BSA and 20 mM Hepes) to a final volume of 4,000 μl. Each minipump was connected to a brain infusion needle, which was stereotaxically placed in the right lateral ventricle of the mouse brain in deeply anesthetized mice (chloral hydrate 60 mg/kg intraperitoneal). The pump was placed subcutaneously in the neck. The delivery rate of PDGF-BB was 0.1 μg/h/kg body weight. ^3H-thymidine (6.7 Ci/ml, NEN) was given for three days via another Alzet pump which was placed intraperitoneally.
One hour after the pumps were inserted, the neurotoxin 1-methyl-4-phenyl-1,2,3,6-tetrahydropyridine (MPTP HCl, Sigma) was given subcutaneously (40 mg/kg).
Two months later, animals were anesthetized with choral hydrate (60 mg/kg ip) and sacrificed by intracardial infusion of fixative (4% paraformaldehyde in 0.1 M phosphate buffered saline (PBS) containing 0.4% picric acid. After dissection, postfixation in the same fixative continued for 1.5 h followed by cryoprotection. After dissection of the midbrain, the two sides of the brain were separated with a cut along the ventro-dorsal midline and the tissue was postfixed in the same solution and cryoprotected in sucrose. Cryostat sections were prepared as follows: a randomly chosen half-brain was cut into 40 μm thick sections through the full rostro-caudal extension of substantia nigra pars compacta. A randomly chosen series of every 6th section was taken to perform free-floating immunohistochemistry using a polyclonal anti-tyrosine hydroxylase antibody (diluted 1:400, Pel-Freez) in order to identify dopaminergic neurons in the tissue. To visualize the antibody, the avidin-biotin peroxidase kit (Vector) with 0.03% DAB as chromagen was used adding 0.01% H2O2. Cresyl violet was employed to identify the nucleolus, Nissl substance and glia cells (Chan et al., 1997; Walters et al., 1999). The other half of the brain was sectioned in 10 μm thick sections on glass and a randomly chosen series of every 6th section was immunohistochemically stained for tyrosine hydroxylase in dopaminergic neurons as previously described. To detect incorporation of the ^3H-thymidine nucleotide in brain cells, the sampled slides were dipped in NTB2 nuclear track emulsion (Kodak) and stored in light-tight boxes at −20° C. for four weeks. […]

[1] = system: cultured, non-adherent mouse neurospheres; assay: Intracellular ATP assay, proliferation of cultured mouse neurospheres; type: cell-based; conditions: growth media supplemented with B27; 1 nM-0.0005 nM; 3 days of treatment; FIG. 1
Method: The anterior lateral wall of the lateral ventricle of 5-6 week old mice was enzymatically dissociated in 0.8 mg/ml hyaluronidase and 0.5 mg/ml trypsin in DMEM containing 4.5 mg/ml glucose and 80 units/ml DNase at 37° C. for 20 min. The cells were gently triturated and mixed with three volumes of Neurosphere medium (DMEM/F12, B27 supplement, 125 mM HEPES pH 7.4) containing 20 ng/ml EGF (unless otherwise stated), 100 units/ml penicillin and 100 μg/ml streptomycin. After passing through a 70 μm strainer, the cells were pelleted at 160×g for 5 min. The supernatant was subsequently removed and the cells resuspended in Neurosphere medium supplemented as above, plated out in culture dishes and incubated at 37° C. Neurospheres were ready to be split approximately 7 days after plating.
To split the neurospheres, cells were collected by centrifugation at 160×g for 5 min. The conditioned supernatant (conditioned medium) was removed and saved. The neurospheres were resuspended in 0.5 ml Trypsin/EDTA in HBSS (1×), incubated at 37° C. for 2 min and triturated gently to aid dissociation. Following a further 3 min incubation at 37° C. and trituration, 3 volumes of ice cold Neurosphere medium medium w/o EGF were added to stop further trypsin activity. […]
After 3 days of treatment, intracelluar ATP was measured using the ATP SL kit (Biothema) according to the manufacturer's instructions.

B1: PDGF-BB: human recombinant PDGF-BB, platelet derived growth factor B-chain homodimer (protein)
chain: SLGSLTIAEPAMIAECKTRTEVFEISRRLIDRTNANFLVWPPCVEVQRCSGCCNNRNVQCRPTQVQLRPVQVRKIEIVRKKPIFKKATVTLEDHLACKCETVAAARPVT
cell number in the substantia nigra (MPTP-lesioned mice; MPTP lesioned mice after infusion of PDGF): double
Total number of tyrosine hydroxylase neurons in the bilateral substantia nigra pars compacta (MPTP-lesioned mice; MPTP-lesioned (40 mg/kg s.c.)): 10,000 ± 200
MPTP-induced loss of tyrosine hydroxylase positive nerve cells (MPTP-lesioned mice; after an MPTP lesion): completely counteracted
Total number of tyrosine hydroxylase neurons in the bilateral substantia nigra pars compacta (MPTP-lesioned mice; no MPTP lesion): 12,300 ± 300
proliferative effect (intracellular ATP) [1]: concentration dependent proliferative effect
